Measurements reported in publication PMC4509860 (Nature chemical biology, 2015).
Substitutions are numbered along the chain they refer to. Names and notes keep the numbering of the source. No end group written: not given here. *: point of attachment. FITC = O=C1OC2(c3ccc(O)cc3Oc3cc(O)ccc32)c2ccc(NC(=S)*)cc21; Ahx = NCCCCCC(=O)O

B1: FITC-labeled CurA leader (peptide)
chain: {FITC-Ahx}-GMSTLISKLPPAVSTDSSKIVSEVQAFEPT
B2: FITC-labeled HcaA leader peptide (peptide)
chain: SGSMNQFQQELQSLNLNDYQTGNVVYWDPQQSQYPYYYIQDDAR
modifications: not fully specified (N-terminus); also: FITC label
B3: TbtF wild-type (natural protein)
chain: MIPARPVLTPGVRYAPTSDGVAFLTRDGIVSITGVSIHRWIDRIAPHLTGERSVAELTDGLAPERRAFVLRLLQALADRGLIIDAAGGREPRLERGTACALHVTETCGPYRESLPKLARSLADALTRAGLDVRLASASEPCDPERCHALVHLTAADEVGLAAAERLDRLSERWGVPIAHVVVWGGEIWRTEAGTVGEDGLPLAAGWRRLTALRPDTEERVPISPTAAVVVAGQVAADVRDRLTTATRAGRRPRLHVVEPARLTCRAHHFIPHFHTMPLTGDAPLAEELTEEEFSRRAAALMDDRTGVFTEIAEGDFGQLPLHVAVTTVADPVGLLGPAGDRPRVIGVGPDFATARYRTARAAIALYGLLAVDPRRLVDADGEPLAGPRTSAAELEDLLGRIRAGGLPAFVRAEDVRGGPPRLLPASSVFPFATARALLAGTVPTGTAVGYSEEGALRAALLDHCRERTLADLASRRVARLTPDTAPSDPVTARYLAFLRAIGLPFDVLDATGPLGVPVYVGVLDGRVVAAEAGASPGEAFRSVLEGILRGLQGIPAARSLPDTLPPVLPEAMAVPDGSPLSAEALAAALARAGLSVSVVRLDHDRRVHALIPHCVRVMVTGEESAHV
B4: TbtG wild-type (enzyme)
chain: MSDALAAAIIGAGLLADELAAAFRPYGEVIRLDEVERAETEAHRLRALVMACDGWDTSIYRETRERCRRLGIPWLPVRTEHGIAVIGPLERPGEPGCAHCFELRRERARPDAAAYRAILNHHGPELAKRPSPYLDELAAATIAALGVRMIDQGSGCHVWYVRLNGLTVERHAFLPEPLCPECGSLPMDDRDSAVIVLRSQPKRAPDDYRTRDIVDELDALVADYVDGESGLIRPLVRDTQGGLVIAGAMLPLRFAGGSEPGVGRTRGYRTSEVTAILEALERWGGVEPGGKRTVIRAAFRDIAADALDPRTLGVHSPEAYAAEDFPFRPFTEDEETEWVWGYSFARRSPILVPETVAYYYVHRDRPRQERPFLYEISNGCALGSGMEEAILYGILEVVERDAFLMTWYGRLGVPRIDLDSAKNRMVPLQAAAISAETGYRIEVYDTTMEHGIPSVWALAIRGGEEPTAAPRPRMVCAAAAHLDPEQAVLSALSELGPLLADLLRRYPDEAERARRMVDDPGLVTTMHDHSTLYGADEAFGRLEFLTGTASTRDLAAMRESTVAFRSADLRDDLLEVIGRILAEGMDVIVVDQTTPEHRVHGFTCVKVLIPGMIPMTFGHRNRRLDGLTRPLVIPYRLGYRPAPLTPEALNPHPHPFP
B5: FITC-labeled TbtA leader peptide (peptide)
chain: SRRGSMLNLSDLPMDVFEMADSGMEVESLTAGHGMPEVGA
modifications: not fully specified (N-terminus); also: FITC label
B6: TbtF R79A (natural protein)
chain: B3 chain with R79A
B7: StmE L73A (natural protein)
chain: MRPNVQIVSRDGDNFVLNLRNGEYWHLNSSAYTMLTRIADGETVDEVARDISAATSAPEQTVRDDLTEAVDQLRKAKLVEVRHS

Assays:
Experiment in all cases: fluorescence polarisation
CurC wild-type = CurC wild-type (Corynebacterium urealyticum DSM 7109)
HcaF D21A = HcaF D21A (Bacillus sp. Al Hakam)
HcaF F35A = HcaF F35A (Bacillus sp. Al Hakam)
HcaF wild-type = HcaF wild-type (Bacillus sp. Al Hakam)
[1] = molecular target: B5
TbtF D19A = TbtF D19A (Thermobispora bispora)
TbtF Q74A = TbtF Q74A (Thermobispora bispora)
TbtF R71A = TbtF R71A (Thermobispora bispora)
TbtF/G = TbtF/G (Thermobispora bispora)
TbtF L24A = TbtF L24A (Thermobispora bispora)
TbtF F68A = TbtF F68A (Thermobispora bispora)
TbtF V30A = TbtF V30A (Thermobispora bispora)
[2] = molecular target: FITC-labeled StmA leader peptide (Streptomonospora alba, N-terminal FITC-Ahx (fluorescein isothiocyanate with an amino hexyl linker))

B1
Kd (CurC wild-type): 7000 nM

B2
Kd (HcaF D21A): 130 nM | Kd (HcaF F35A): 1700 nM | Kd (HcaF wild-type): 89 nM

B3
Kd [1]: 66 nM

B4
Kd [1]: > 10000 nM

B5
Kd (TbtF D19A): 57 nM | Kd (TbtF Q74A): 49 nM | Kd (TbtF R71A): 190 nM | Kd (TbtF/G): 66 nM | Kd (TbtF L24A): 65 nM | Kd (TbtF F68A): 7700 nM | Kd (TbtF V30A): 210 nM

B6
Kd [1]: 79 nM

B7
Kd [2]: > 10000 nM
